Experimental data as given in the DeepSol protein solubility set.

Assay: soluble on expression in E. coli; label from the status in PepcDB or PDB records

| Sequence | soluble on expression in E. coli |
| --- | --- |
| MHILVTGFAPFDNQNINPSWEAVTQLEDIIGTHTIDKLKLPTSFKKVDNIINKTLASNHYDVVLAIGQAGGRNAITPERVAINIDDARIPDNDDFQPIDQAIHLDGAPAYFSNLPVKAMTQSIINQGLPGALSNSAGTFVCNHTLYHLGYLQDKHYPHLRFGFIHVPYIPEQVIGKPDTPSMPLEKIVAGLTAAIEAISNDEDLHLALGTTE | not soluble |
| MTDVYIAAGLRTPIGLVGKQFAKEQPEILGAKLINALQNKYPVPIDQVICGNTVGTGGNIGRLMTLYSHLGESVSALTVDMQCASAGAALSVGYAKIKAGMASNLLVGGIESSSLQPESVYASADWRQGAYKVAQFSPDSISPFAMIEGAERVAREHGFTKEYLNHWTLRSHQKASYCQEQALLADLILDLSGASDQGIRPRLSSKVLSKVPPILGEGHVISAANACLTHDAAAFLQLSSQPSAFKLIDVVEVAGDPQRSPLMVIKASQVLLEKHGLGMADMTAIEWNEAFAVIDGLFETHYPDLLDRYNIFGGALAYGHPYGASAAIIILHLMRALEIKNGRYGIAAIAAAGGQGFAVLLKYHKEFSHADKARILGKAMPK | not soluble |
| MRNPFERMPTVLTADELIDKAFRRAEKAASSFKPRGNKVKKARLREELRVRTVSNVVRDNLRKVLERTPGLSTLPKFYQELVDVLVDRDTFHKAMAGIDWAIRIIRELEERYVERIRYSNDPNEIAELRRQFYGRVASVLRDIDDRLRYLNKAREVLKDLPVVDLEIPTVVIAGHPNVGKSTLLKALTTAKPEIASYPFTTRGINVGQFEDGYFRYQIIDTPGLLDRPISERNEIEKQAILALRYLGNLIIYIFDPSEHCGFPLEEQIHLFEEVHGEFKDLPFLVVINKIDVADEENIKRLEKFVKEKGLNPIKISALKGTGIDLVKEEIIKTLRPLAEKVAREKIERELRRYRSYL | soluble |
| MDAYLDYISGIWSKIDKKFHDQDISAKVAILQLVARPYYYWIQENPAQEKPVVEESQPRKQDNLREITSKYGDALQVDSDTVKIVKRLNTDEFNKLKEDLRQLGFLYDAQLRGFKKKQ | not soluble |
| SNANAEPAVKAESAGKSVAASLKARLEKTYSAQDLKVLSVSETPVKGIYEVVVSGRQIIYTDAEGGYMFVGELINIDTRKNLTEERAADLNKIDFASLPLDKAIKEVRGNGKLKVAVFSDPDCPFCKRLEHEFEK | not soluble |
| MNASLSSDIAPYIPTLIQQLPIIEEIKTHLPQVLPDYSADEIHATAIASVGMYLADIDYGIRQAIAPEVTPLELRQKLSAYKIELFKRIYNIQFLQPPSTPIGGLELMQQAFKTYKRLLTTLAKAYNLRLPKGILLEHHHHHH | not soluble |
| MDNEFTSPVYGVKAVPVERIRANSYNPNVTAPPEMRLLELSIWEDGYTMPCVCYYIEKEDVYELVDGYHRYKVMMTSPRIYKRENGLLPVTVIRKDLAERMASTIRHNRARGMHKIELMTRLVGELTRSGMSDSWIRRNLGMDKDELLRLKQISGLAELFADKEFRKAVE | not soluble |
| MPTPPGQSSSQPLPAKELGYFKKIVKSYEQKQYKAGLKFAQKILTSPGFAEHGETLAMKGLILNCMGKLQEAQDCVRRGLVSDLRSYVCWHVFGLIQKTEKKYDEAIKAYKRALMLEKDNLQILRDLSLLQIHIRDYDGYLSSKYELLQLRQTQRVSWLGYIVAHHLLKEHNLALGIMAEYIKNNTPSGYDFEFSELILYQNLIMREAGLPDVALQKLEENSTHIVDKVAYMETRANLLMDLEQPKQAENVWRALIERNPDSLEYYDMLEKCMGIKDSPKAQLAMLDGLAEKFKRAAAPRRLALYLVEGEELRRRLHEWMIPMLRKGAPSLFASLVPLYKYPQKQAVIESLITEYVKKMDDEGYGNVSLDGKDQECEPPTTALWLYVLASHHFDRCGMTQLALNYIERAIQHTPTVVENYMLKARIYKHAGDYDEAARWMEEAQSLDTADRYINGKCGKYLLRAKRSDEANKMLAKFTREGENAASHLTDMQCMWYELESGRAFRSVNKYGEALRKAHHIDFHFNTWIEDQYDFHTYCLRKMTLCSYIRLLRMCDKLRDADYYYQGAKLAIKIYLRMIDRPDDMNEHSALIKEGMTDQEIKKMKKKLKKQKELQEEEEKKKKDKEQKEEGLQRGPQIDAEALLKTEDPLGEAAKFCHNIHTFGTQKVTGYALCAEVYRRKGKVLLALKCLNEGEDREPTHPLLHVQKVKFLAYWPKCELSGLVKETADELMKCVYGAERDAAELNEKFKIEHQHDFAHRLAYAEAQYSIDSSTNLISWILKSIEDSKVNGRSLKMMIKLKDGIEYGKYGKWSKDDMEKLRKQVHSLFPLSLDFGGGVQHKSASAAPTSAETN | not soluble |
| MQAVNTTSGGAVGVDRKQYMFSMLSSQEVDQMYAQSYQKTLGEAKSAGVLDTSSADARRVKAIAQRLIPQTAAFRPDATGWNWEVNVVKSDELNANCGPGGKIIFYTGLIDKLKLTDDEIAAVMGHEIAHALREHGREAMSKAYGVQVASQIGALAGLGQESLQLANTGVDYLMTLPNSRANENEADLIGLELAARAGYNPEAAITLWQKMGRASGGASQPEFTSTHPSDSSRMANLQAAIPKVMPLYQQARRGKLEHHHHHH | soluble |
| MGSDKIHHHHHHMTRFRSTLPQVNGTTLLTDSGLETTLIFHDGLDLPCFAAYPLMETAEGRAVLRDYFQRHLAIASERSAGFLLESPTWRASRDWGAQLGHGPDDLARLNNDAIAMLVDLRDDATGVGPIVISGNIGPRGDGYVADAAMTADEAEDYHAEQIGWFAQSEVDLATAVTLSTVAEGVGVIRAAHRVDLPVVVSFTTETDGRLPDGTPLGRAIEQTDALTDGAAAYFMVNCAHPDHFRPVLDTGTAWLNRIGGVRANASRMSHAELDEAETLDAGDPAELGRDYRDLRQILPNLTVIGGCCGTDHRHIEAMADRCLGHNAA | not soluble |
| MAHHHHHHMGTLEAQTQGPGSMGTSQEFETSSLKTLPLYELHEKAGAKFGAFAGWRMPLTYPLGVLKEHLHTRAHAGLFDISHMKLIAVEGPKAVEFLSYALPVDAALLKIGQSRYSYLLNERAGILDDLILTRLAECRFMLVANAGNAQADFAELEKRAFGFECQVIALERVLLALQGPQAAAVLADAGLPGNELLFMQGFEPQQDWFITRSGYTGEDGFEIALPIGCARALAEKLLGDSRVEWVGLAARDSLRLEAGLCLHGNDITPDTTPIDAALTWAVPKNVREKAQFYGAKAFLESLQKGPSRCRVGLKPQTRQPIRAGAVLFDNEGNRIGVVTSGGFGPSFDGPVAMGYVPVAWKVEGTEVFTELRGKKIALSVHSLPFVEQRYFKG | soluble |
| MGSDKIHHHHHHMNKKFLLTGASGFVGKHLYSINPSQFRCVVREDGERFPDAYKVNGINSKTDWTDSFLDIDCIIHLAGLAHSNNNRNDEYRETNFLGTLCLAQQASKSGVKRFVFVSSIGVNGNATLEKPFSIFDEPKPLNSYTNSKYDAEIGLKKIAAETGLEVVIVRPTLVYGPNAPGNFGLLTKLVKKLPVLPFGLANNKRDFIAVQNLADLLITCATHPNAAGHMFLASDMETVSIKQFTNAIADGLGKKVFQFPIPVSLMRLTGKLMRKSAMVEQLLGNLQVDSSNIKEVLDWTPPLTMKQAMTTLCDSGKSS | not soluble |
| MIVAIIDGYTDEPAGLGVPPYLGLYPRYAYGAIKKARRDANIFYLTIDDLRATFEGEQGIKTKNKTPNFPKVKEILEKAEVIVFIGGLHTPGKYLSAVPGSVEEVSKFISHYNGVKVLGGPAFMGSAKIGGVKVTTKELRFAEEVFDYVVYGDIEAFLFDYFSGRELDPFRFRDYEELQPYALLGAEVVKQFPGYPEFVLIEIETQRGCPKAMGIGGCSFCTEPVRYRVVENRPQEYVAQEVKVFYNLGIRHFRIGRQSCIFSYMAKPNGRVPIPNPEEVEKLFKAVRLAAPNVKTLHVDNANPAVIANYPEESKRIAKAIIRYGTPGNVVAFGLETADPKVARINNLNATPEETYEAVKIINEVGGKRGYNGLPWLLPGINIIFGLPGETKRTYELTYEFLKKILDDGLMVRRINIRQVVVFPGTPLWNMRDKVKTEKHKKLIEHYRHKIRHEIDLPMLKRIVPVGTILRDVRAEIYDGELTFGRQFGSYPLIVGIPKRVELDRYYDVMIVDHGLRSVTGIPVPIDVNGESSKVLRWLPGIGKKTLARILAKRPFKSEEEFLSLLPEDVKKMYKGKIKV | soluble |
| MNPIQHILDTYPLIVLDGAMATELERKGCNLNDSLWSAKILMEEPELIKQVHTDYFAAGADCAITASYQSTFEGFAARGLSEAEARRLIELSVSIAAEARDEFWSLEENRLNRPKPIIAASIGPYGAYLADGSEYRGNYAISEDELIEFHRPRMKALIEAGADVLACETIPCLTEAKAIVRLLKEFPETYAWISFSAKDGLHISDGTPAADCASWLDEHRQIAALGINCTPLQHIPSLIEELKKNTSKPIIVYPNSGEQYDPETKTWNGAACAESYGASARTWHEKGARLIGGCCRTKPENIQEIAAWARSLKTT | soluble |
| MRESPYRILEEALRPHLGARAQVVLEEGLKRLGKRPEELSEKDAETLLKGLIFRELQARLPAAQARRAVEEALARLAPAPEGGLEALERGLARFGLYVDWPEVGRLRALVNRLRREPDPRLLQEGLALLDHLEEKLEEALLRQAQDLAHLEEALERVRPLGGPKVRRLESLIQIVREAHREGTLAQGEVERARGPGPEAPQVPGLQSRPARHPPRDGL | soluble |
| MPKERKERSVSLDKYKRSPLCCEASLALKPSEKQVKEWEEARCPVCMEHPHNGILLICSSYENGCRPYMCDTSHRHSNCFDQFRKASKEKPSLSLLREEEESNEPTEMEDVDSDSTAVNLLGEAASEITVVDLSDGERGEEEVEEEEEEVVVEEEEEGIVTTEEDQEKNKPQKLTCPLCRGHIKEWVVVKAARCFMNSKHRSCSCETCDFSGSYSDLRKHARLLHPGVRPSEADPERQRSWRRLERQSDLGDLLSTLQSSFGGDEISNDDGFLFADTRLLTVYFLIRVFRPESSGSRSSSWSGTSRARTHTSGRRRSSRPASLWGESYEGNTGTSPRDEENNQSSDEQVSGTRRRRSRRRTVIDDDDEEEEP | not soluble |
| MIAEFESRILALIDGMVDHASDDELFASGYLRGHLTLAIAELESGDDHSAQAVHTTVSQSLEKAIGAGELSPRDQALVTDMWENLFQQASQL | not soluble |
| MSLATIVVKTTPDNEIAYWPTGKEHLFCIALGTKAQAGPLGEFVHQFRTDRPGMVQVWTQGSDSFTLYLTPGSKDTITVTKDTLIISGTNSAYNRCLKTVNDYQKYSDKLVYMQPHELRGITSLEQYHRLADARMRQALDAVNASGLNEEFLAEQRAHIDYIRRSIFIHIARQLSRKEKLPEDWQRELTEVINSSVNGDYLRSYRGIGFFVNDLVMMQFTNLENGDLKEIKEYASFLFDRYRKFFTGDNLQYMQAQLIYEDEFQGSKTPSIPQLYETYRAEFPNSPFLNVLEPGVKENLRFQNSRITDKDYHILTCDSTITSLEDAVKPFKGKVVYIDVWATWCGPCLKEFQYLPTLKEKAHNMDVVYLYISIDRPEERKKWEKTIAYHQLKGYHLLVNEKLGKSLYTELGNERQILSIPCFVIIDKTGKIVIRHAAAPSEPEKVIEQLSTYYNKEGHHHHHH | soluble |
| GAACNVLFINSVEMESLTGPQAISKAVAETLVADPTPTATIVHFKVSAQGITLTDNQRKLFFRRHYPLNTVTFCDLDPQERKWTKTDGSGPAKLFGFVARKQGSTTDNVCHLFAELDPDQPAAAIVNFVSRVML | soluble |
| SNAMNHSRESYDRLARELGGYRHPWARVLSGPDPELTFDLWLSRLLTPQTRVLEAGCGHGPDAARFGPQAARWAAYDFSPELLKLARANAPHADVYEWNGKGELPAGLGAPFGLIVSRRGPTSVILRLPELAAPDAHFLYVGPRLNVPEVPERLAAVGWDIVAEDHVSVLAHAPTWEDWQMRGEFMGKLARRADWDAEATVRGMPYREERHLVLARQLGVARKLGA | soluble |
